Results reported in patent US20250282860A1 (SUZHOU FORLONG BIOTECHNOLOGY, published 2025).
Positions count from the first letter of the chain named. Numbers in names are those of the source.

B1: IL-2 mutant 21-C1 (ligand)
chain: APTSSSTKKTQLQLEHLLLDLQMILNGINNYKNPLLTDMLTLHFYMPKKATELKHLQCLEEELKPLEEVLNFAQSKNFHLRPRDLISNINVIVLELKGSETTFMCEYADETATIVEFLNRWITFCQSIISTLT
notes: Expressed in Expi293; also called 1.21-C1
B2: IL-2 mutant 21-F9 (ligand)
chain: B1 chain with L35M, L42V, H43G, Y45F
notes: Expressed in Expi293; also called 2.21-F9
B3: IL-2 mutant 21-F10 (ligand)
chain: B1 chain with L35E, L42F, H43K, F72A
notes: Expressed in Expi293; also called 3.21-F10
B4: IL-2 mutant 22-A4 (ligand)
chain: B1 chain with L35G, L42I, H43Q, Y45F
notes: Expressed in Expi293; also called 4.22-A4
B5: IL-2 mutant 22-B2 (ligand)
chain: B1 chain with L35S, H43Q
notes: Expressed in Expi293; also called 5.22-B2
B6: IL-2 mutant 22-D11 (ligand)
chain: B1 chain with L35D, H43R, Y45F
notes: Expressed in Expi293; also called 6.22-D11
B7: IL-2 mutant 22-E8 (ligand)
chain: B1 chain with L35D, D38E, L42F, H43K, F72Q
notes: Expressed in Expi293; also called 7.22-E8
B8: IL-2 mutant 23-C8 (ligand)
chain: B1 chain with L35G, L42F, H43N
notes: Expressed in Expi293; also called 9.23-C8
B9: IL-2 mutant 23-H9 (ligand)
chain: B1 chain with L35G, L42Y, H43S, Y45D, F72L
notes: Expressed in Expi293; also called 10.23-H9
B10: IL-2 mutant 24-C2 (ligand)
chain: B1 chain with L35D, D38E, L42F, H43K, F72S
notes: Expressed in Expi293; also called 11.24-C2
B11: IL-2 mutant 24-C6 (ligand)
chain: B1 chain with L35E, D38E, L42F, H43K, F72A
notes: Expressed in Expi293; also called 12.24-C6
B12: IL-2 mutant 24-D2 (ligand)
chain: B1 chain with L35E, L42F, H43K, F72G
notes: Expressed in Expi293; also called 13.24-D2
B13: IL-2 mutant 24-E4 (ligand)
chain: B1 chain with L35D, L42F, H43K, F72A
notes: Expressed in Expi293; also called 14.24-E4
B14: IL-2 mutant 21-F10-C125A (ligand)
chain: B1 chain with L35E, L42F, H43K, F72A, C125A
B15: IL-2 mutant 22-E8-C125A (ligand)
chain: B1 chain with L35D, D38E, L42F, H43K, F72Q, C125A
B16: IL-2 mutant 23-C8-C125A (ligand)
chain: B1 chain with L35G, L42F, H43N, C125A
B17: IL-2 mutant 24-C2-C125A (ligand)
chain: B1 chain with L35D, D38E, L42F, H43K, F72S, C125A
B18: IL-2 mutant 24-D2-C125A (ligand)
chain: B1 chain with L35E, L42F, H43K, F72G, C125A
B19: IL-2 mutant 24-E4-C125A (ligand)
chain: B1 chain with L35D, L42F, H43K, F72A, C125A

These binders were tested against T1, IL-2 receptor α (UniProt P01589 22-213, limits assumed) (assay: BLI, AHC probes).
T1 construct: BLI used Anti-human IgG Fc Capture (AHC) probes with the IL-2 mutant diluted as analyte; also called IL-2Rα; CD25
T1 sequence (looked up): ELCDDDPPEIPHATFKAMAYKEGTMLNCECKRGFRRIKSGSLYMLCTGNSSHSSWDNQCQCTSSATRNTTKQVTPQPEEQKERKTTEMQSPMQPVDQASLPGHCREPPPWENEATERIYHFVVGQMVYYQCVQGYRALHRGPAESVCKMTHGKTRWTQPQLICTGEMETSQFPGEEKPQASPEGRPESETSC

Question: Does B1 bind?
Answer: no binding (tested: 100 nM highest concentration)

Question: Does B2 bind?
Answer: no binding (tested: 100 nM highest concentration)

Question: Does B3 bind?
Answer: no binding (tested: 100 nM highest concentration)

Question: Does B4 bind?
Answer: no binding (tested: 100 nM highest concentration)

Question: Does B5 bind?
Answer: no binding (tested: 100 nM highest concentration)

Question: Does B6 bind?
Answer: no binding (tested: 100 nM highest concentration)

Question: Does B7 bind?
Answer: no binding (tested: 100 nM highest concentration)

Question: Does B8 bind?
Answer: no binding (tested: 100 nM highest concentration)

Question: Does B9 bind?
Answer: no binding (tested: 100 nM highest concentration)

Question: Does B10 bind?
Answer: no binding (tested: 100 nM highest concentration)

Question: Does B11 bind?
Answer: no binding (tested: 100 nM highest concentration)

Question: Does B12 bind?
Answer: no binding (tested: 100 nM highest concentration)

Question: Does B13 bind?
Answer: no binding (tested: 100 nM highest concentration)

The binders below were run against T1, IL-2 receptor α (assay: BLI with AHC probes; C125A protein in 3-fold dilutions from 100 nM to 1.23 nM).

Question: Does B14 bind?
Answer: no binding (tested: 100 nM)

Question: Does B15 bind?
Answer: no binding (tested: 100 nM)

Question: Does B16 bind?
Answer: no binding (tested: 100 nM)

Question: Does B17 bind?
Answer: no binding (tested: 100 nM)

Question: Does B18 bind?
Answer: no binding (tested: 100 nM)

Question: Does B19 bind?
Answer: no binding (tested: 100 nM)

What follows are binders tested against T2, IL-2 receptor β (UniProt P14784 27-239, limits assumed) (assay: BLI, AHC probes, IL-2 diluted 3-fold from 1000 nM to 12.35 nM).
T2 construct: BLI used Anti-human IgG Fc Capture (AHC) probes with the IL-2 mutant diluted as analyte; also called IL-2Rβ; CD122
T2 sequence (looked up): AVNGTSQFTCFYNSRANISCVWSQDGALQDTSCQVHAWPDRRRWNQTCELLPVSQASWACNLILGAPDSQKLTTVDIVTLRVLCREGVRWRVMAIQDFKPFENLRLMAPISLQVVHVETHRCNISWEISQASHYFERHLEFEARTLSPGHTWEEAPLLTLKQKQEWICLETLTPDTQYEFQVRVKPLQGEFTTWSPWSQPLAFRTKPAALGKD

Question: B2 was tested. Which Kd did it give?
Answer: 50 nM
